# Source: patent US20230416394A1
# What was measured:
# human TGFβ1 (human) [1] = target: human TGFβ1 (human) (UniProt P01137); test: Octet, ES014-1 on sensor, TGFβ gradient
# [2] = target: human CD39 protein (Octet assays) (human); test: Octet, ES014-1 on sensor, CD39 protein gradient
# human TGFβ1 (human) [3] = target: human TGFβ1 (human) (UniProt P01137); test: ELISA, coated human TGFβ1
# human TGFβ1 (human) [4] = target: human TGFβ1 (human) (UniProt P01137); test: ELISA, blocking of TGFβRII-His binding to coated TGFβ1
# human CD39 (human) = human CD39 (human) (UniProt P49961); test: cell-based or functional assay
# Chain of human CD39 (human) (P49961 whole entry): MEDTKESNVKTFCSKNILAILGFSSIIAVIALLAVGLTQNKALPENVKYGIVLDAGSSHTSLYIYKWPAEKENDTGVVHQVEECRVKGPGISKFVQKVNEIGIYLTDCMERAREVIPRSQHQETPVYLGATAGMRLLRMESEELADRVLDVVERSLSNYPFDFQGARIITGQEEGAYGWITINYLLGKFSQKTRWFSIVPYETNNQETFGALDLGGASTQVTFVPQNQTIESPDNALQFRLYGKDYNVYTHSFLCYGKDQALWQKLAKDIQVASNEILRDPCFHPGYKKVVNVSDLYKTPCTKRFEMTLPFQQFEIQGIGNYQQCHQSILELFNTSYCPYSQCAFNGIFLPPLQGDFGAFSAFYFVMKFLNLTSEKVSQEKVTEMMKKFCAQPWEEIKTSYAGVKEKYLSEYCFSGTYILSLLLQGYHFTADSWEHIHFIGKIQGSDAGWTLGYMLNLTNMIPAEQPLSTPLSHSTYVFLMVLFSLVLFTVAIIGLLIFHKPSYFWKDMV
# Chain of human TGFβ1 (human) (P01137 279-390 limits assumed): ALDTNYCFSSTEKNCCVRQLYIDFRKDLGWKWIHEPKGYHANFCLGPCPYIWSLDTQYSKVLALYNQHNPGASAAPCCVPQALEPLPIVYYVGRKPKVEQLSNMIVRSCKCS
substance,measurement,setting,value
ES014-1 (bispecific antibody),Kd,human TGFβ1 (human) [1],0.037 nM
same,koff,human TGFβ1 (human) [1],0.000234 s⁻¹
same,kon,human TGFβ1 (human) [1],6.32e+06 M⁻¹ s⁻¹
same,Kd,[2],0.376 nM
same,koff,[2],3.44e-05 s⁻¹
same,kon,[2],91400 M⁻¹ s⁻¹
same,EC50,human TGFβ1 (human) [3],0.26 nM
same,IC50,human TGFβ1 (human) [4],3.73 nM
same,IC50 to CD39 ATPase activity on MOLP-8 cells (CellTiterGlo),human CD39 (human),1.21 nM
